This passage reports stoichiometry N results from paper PMC11121179.

For orientation: stoichiometry N means a count of units in the complex or per binding partner.

The experiment deals with PKM2 (pyruvate kinase M, isoform M2) (human (endogenous in HUVECs)) (UniProt P14618). As to the kind of experiment: native gel or EMSA. (In general: Mobility shift assays separate free from complexed probe on a gel.)

Sequence of PKM2 (pyruvate kinase M, isoform M2), P14618 1-531 (enzyme; other documents disagree on this pair) (P14618 whole entry, canonical isoform): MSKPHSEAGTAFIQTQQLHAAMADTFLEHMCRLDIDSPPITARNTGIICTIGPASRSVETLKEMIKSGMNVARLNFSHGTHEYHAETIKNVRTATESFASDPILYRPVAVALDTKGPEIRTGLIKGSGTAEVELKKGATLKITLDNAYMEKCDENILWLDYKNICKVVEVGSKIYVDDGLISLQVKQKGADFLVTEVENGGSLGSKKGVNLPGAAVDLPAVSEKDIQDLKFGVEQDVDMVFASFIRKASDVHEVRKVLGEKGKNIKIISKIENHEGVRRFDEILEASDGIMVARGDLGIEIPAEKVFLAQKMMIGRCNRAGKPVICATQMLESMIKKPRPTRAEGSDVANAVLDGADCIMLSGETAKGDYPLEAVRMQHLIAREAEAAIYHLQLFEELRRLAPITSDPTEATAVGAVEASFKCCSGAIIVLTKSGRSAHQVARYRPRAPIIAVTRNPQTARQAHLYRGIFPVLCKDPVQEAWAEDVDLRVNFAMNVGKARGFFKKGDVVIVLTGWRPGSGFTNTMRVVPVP

Substance “PKM2 (pyruvate kinase M, isoform M2), P14618 1-531 (enzyme; other documents disagree on this pair)” yielded a stoichiometry N of 2.
